Literature values, collected in article PMC11695704.

Target: Clr-b (Mus musculus) (UniProt Q91V08)
UniProt Q91V08, sequence (Q91V08 whole entry): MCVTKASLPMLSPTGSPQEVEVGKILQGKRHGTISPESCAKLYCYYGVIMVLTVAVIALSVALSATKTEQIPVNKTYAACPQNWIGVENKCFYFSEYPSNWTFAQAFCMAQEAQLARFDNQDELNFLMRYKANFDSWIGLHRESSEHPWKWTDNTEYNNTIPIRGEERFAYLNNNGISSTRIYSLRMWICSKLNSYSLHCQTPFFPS

Substance: NKR-P1B (from UniProt P27812)
- Kd: > 500 µM
